Here are results for two substances from paper PMC7693240.

pKd: −log10 of the molar value.

Assay [1] addresses H6-Smt3-Int^C(N125A)-CysTag(Alexa647)-Trx-H6. Nature of the assay: MST.

For orientation: pKd means −log10 of the Kd, conventionally taken in molar units. A low value points to a high Kd. Substance MBP-Int^N(C1A)-H6 (domain or fragment) had a pKd in assay [1] of 7.65.
As usually defined, the koff is the first-order rate constant of dissociation. Low values mean slow dissociation, high ones fast dissociation. Usually kon stands for a measure of how fast the partners come together. High values mean fast association, low ones slow association. On to “SBP-Int^C(N125A)-eGFP (domain or fragment)”, for which, in the assay with H6-Int^N(C1A)-mCherry, the pKd is 8.04, the koff was 0.00082 s⁻¹ and the kon was 85000 M⁻¹ s⁻¹.
